Results: publication PMC4906244

Tested on: His6-ComPsub (Neisseria subflava NJ9703), PDB:2NBA_1
Experiment: SPR
Conditions: DNA immobilized on neutravidin chip; EMSA: 20 mM Tris-Cl pH 8, 50 mM NaCl, 2.5 mM Mg2+, ambient temperature; SPR: 20 mM Tris pH 8, 150 mM NaCl, 0.05% Tween 20, 25 C; NMR: 50 mM sodium phosphate pH …

## TGACCAGGCCGTCTGAACAAAC (double strand) [DUSvar1 ds primer (biotinylated)]
  Kd: 52.7 µM
